“Also recorded” adds a separate entry of the source. Blank lines part the entries; values can stand above or below the molecule they belong to. Where no end group is shown, it is not given here.
Columns and labels:
MDA-MB-231 cells [1] = experiment: 3D scratch wound assay in Matrigel; type: cell-based, human; conditions: MMP inhibitor, 25 µM
Experimental: The 3D scratch wound assay was performed as described in Meirson et al. Targeting invadopodia-mediated breast cancer metastasis by using ABL kinase inhibitors. Oncotarget 2018; 9: 22158-22183. Briefly, 96 well Image Lock microtiter plates (Essen Bioscience) were coated with 100 μg/ml Matrigel (cat #354234; Corning, New-York, NY, USA). Following overnight incubation at 37° C., MDA-MB-231 cells were plated at a final concentration of 350,000 cells/ml and allowed to adhere for 12-16 h in the presence of Pyk2-PRR or control peptides. Following wounding of the bottom Matrigel-cells layer, a top layer of Matrigel was added to a final concentration of 2 mg/ml and allowed to polymerize for 30 min at 37° C. Pyk2-PRR or control scrambled peptides were then added again in DMEM/10% FBS to a final concentration of 0.1, 1, or 5 μM, with or without the MMP inhibitor GM6001 ([…]). Plates were placed in a 37° C. heated chamber, and images were collected using the IncuCyte® Zoom platform (Essen Bioscience; 20×, NA 0.60, air objective). Phase images were collected every one hour for a total of 12 h using the IncuCyte® acquisition software.

cortactin SH3 domain = target: T1, cortactin SH3 domain (Mus musculus, UniProt Q60598); experiment: NMR affinity determination, binding of peptides to purified cortactin-SH3; conditions: for loss of affinity: mutant versus Pyk2-PRR2
T1 construct: nucleotides1468-1641); 6xHis (N, cleaved yes); made in house; host or cells: E. coli BL21 (DE3)
Experimental: The DNA sequence encoding the SH3 domain of the mouse cortactin SH3 domain (GenBank ID U03184; nucleotides1468-1641) was sub-cloned into a pET-28a plasmid (Novagen, Merck) in frame with the cleavable N-terminal 6×His tag. Isotopically labeled cortactin-SH3 for heteronuclear NMR experiments was expressed in transformed E. coli BL21 cells (DE3) grown in the presence of kanamycin (50 mg/1) and chloramphenicol (34 mg/1) at 37° C. in M9 minimal medium. For ^15N (^13C) labeling the medium contained 1 g/L of ^15NH4Cl (4 g/L ^13C6-glucose), and 0.25 g/l of appropriately labeled Celtone Base Powder (Cambridge Isotope Laboratories, Andover, MA) was added. For triple-labeled ^2H,^13C,^15N—SH3, expression began in 100 ml of the above medium grown to an OD600 of 0.4-0.5 and gently centrifuged. Pellets were then resuspended in 500 ml filter-sterilized D20-based ^15N-M9 supplemented with ^2H7-^13C6-glucose (2 g/1) and DCN-Isogro (0.25 g/1) to reach a final OD600 of −0.1. In both cases cells were then grown at 37° C. and induced with 0.5 mM isopropyl β-D-1-thiogalactopyranoside (IPTG) upon reaching OD600-0.8, followed by overnight growth at 27° C. To purify the SH3 domain, cells were harvested by centrifugation, subjected to a single freeze-thaw cycle, and resuspended in lysis buffer (50 mM NaPi pH 8.0, 300 mM NaCl, 1 mM dithiothreitol (DTT), 100 ml per liter of culture) supplemented with 1 tablet EDTA-free protease inhibitor cocktail (Merck) and benzamidine (5 mM). Cells were lysed by French press, followed by addition of benzamidine (final concentration 10 mM) and phenylmethylsulfonyl fluoride (PMSF, 1 mM), and the lysate was clarified by centrifugation. The supernatant was loaded on a HisTrap HP column (GE Healthcare, Chicago, IL, USA) equilibrated with lysis buffer and the protein eluted through a gradient (Buffer B: 50 mM NaPi pH 8.0, 100 mM NaCl, 300 mM imidazole, 1 mM DTT). To the fraction eluting at ˜40% B purified tobacco etch virus (TEV) protease (1:30 mol:mol) was added, and the mixture dialyzed overnight at 4° C. against dialysis buffer (50 mM NaPi at pH 8.0, 100 mM NaCl, 1 mM DTT). The dialysate was brought to a final concentration of ˜5 mM imidazole, filtered, and loaded onto a HisTrap column. The collected flowthrough was dialyzed against 20 mM Tris (pH 7.5), 1 mM DTT for 3 h to reach a final concentration of 10 mM NaCl. […]
Purified SH3 was dialyzed against NMR sample buffer (30 mM NaPi, pH ˜6.5) and concentrated to the desired concentration in an Amicon concentration tube (3 kDa MWCO) (Merck). […] For quantitative titrations, purchased peptides were dissolved in 100-300 μl NMR sample buffer, and samples at varying (SH3:PRR2 1:0-1:6, SH3 concentration constant at 0.1 mM) ratios were prepared. Fittings were performed with 5-6 measured points. […]

MDA-MB-231 cells [2] = experiment: 2D single-cell random migration assay; type: cell-based, human; conditions: highest (higher) peptide concentration; 12 hours; compared to control peptide; data not shown
Experimental: The 2D single-cell random migration assay was performed as previously described in Genna et al. Pyk2 and FAK differentially regulate invadopodia formation and function in breast cancer cells. J Cell Biol 2018; 217: 375-395. In brief, 6-well microtiter plates were coated with 10 μg/ml fibronectin and blocked with 1% denatured BSA. Peptide pre-treated cells were plated at 20,000 cells/well in DMEM/10% FBS containing peptides and allowed to adhere for 12-16 h. Plates were placed in a 37° C. heated chamber, and images were collected using the IncuCyte® Zoom platform (Essen Bioscience, Ann Arbor, MI, USA; 20×, NA 0.60, air objective). Phase images were collected every one hour for a total of 12 h using the IncuCyte® acquisition software. Trajectory plots, accumulated distance (total cell path length), Euclidean distance (the shortest distance between the starting point and endpoint of migration), and velocity were calculated using the chemotaxis and migration tool (ibidi GMBH, Grafelfing, Germany).

MDA-MB-231 cells [3] = experiment: Invadopodium precursor formation assay; type: cell-based, human; conditions: at higher peptide concentrations
Experimental: The invadopodium precursor formation assay was performed as described in Genna et al., 2018 (supra). Briefly, gelatin was conjugated to Alexa 405 dye (Thermo Fisher Scientific). MatTek dishes were treated with 1 N HCl and coated with 50 μg/ml poly-L-lysine. A 0.2% gelatin solution was prepared in PBS, and a 1:20 mixture of Alexa 405-labeled gelatin/unlabeled gelatin was warmed to 37° C. before addition to the poly-L-lysine coated plates. Gelatin was cross-linked with 0.01% glutaraldehyde followed by quenching with 5 mg/ml sodium borohydride. 125,000 MDA-MB-231 cells were plated on Alexa 405-labeled gelatin plates in the presence of 0.1, 1, or 5 μM of Pyk2-PRR peptides or scrambled control for 4 h. At the end of incubation, cells were fixed in 3.7% paraformaldehyde, permeabilized with 0.1% Triton X-100, blocked with 1% FBS, 1% BSA in PBS, and labeled with anti-Tks5 and anti-cortactin. Images were acquired using an inverted fluorescent microscope (Leica AF6000; 63×, NA 1.4, oil objective, Leica LAS AF acquisition software) (Wetzlar, Germany) equipped with an ORCA-Flash 4.0 V2 digital CMOS camera (Hamamatsu Photonics, Shizuoka, Japan).

[4] = target: T2, cortactin-SH3 domain (mouse cortactin SH3 domain, GenBank ID U03184; nucleotides 1468-1641) (mouse, UniProt Q60598 490-546, isotopically labeled (15N, 13C and/or 2H) for NMR); experiment: NMR chemical shift titration (1H,15N-HSQC), unlabeled peptide into 15N-SH3
T2 construct: domain: SH3 domain; also called purified cortactin-SH3

[5] = target: T2, cortactin-SH3 domain (mouse cortactin …); experiment: NMR chemical shift titration (1H,15N-HSQC)

T2 sequence (Q60598 490-546 limits assumed): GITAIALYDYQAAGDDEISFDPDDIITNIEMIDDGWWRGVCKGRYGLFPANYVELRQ

Molecule: CNC(=O)[C@H](Cc1c[nH]c2ccccc12)NC(=O)[C@@H](CC(=O)NO)CC(C)C [GM6001, reference compound]
- ECM invasion (MDA-MB-231 cells [1]): fully inhibited

- Kd (cortactin SH3 domain; capped Pyk2-PRR2 derivatives, NMR titration isotherm, unit inferred): 15 ± 2 µM
Molecule: CC(=O)N[C@@H](C(=O)N[C@H](C)C(=O)N[C@H](Cc1ccccc1)C(=O)N[C@H](CCC(N)=O)C(=O)N[C@@H](CCC(=O)O)C(=O)N1CCC[C@H]1C(=O)N1CCC[C@H]1C(=O)N1CCC[C@H]1C(=O)N[C@@H](CCCCN)C(=O)N1CCC[C@H]1C(=O)N[C@@H](CO)C(=O)N[C@@H](CCCNC(=N)N)C(=O)N1CCC[C@H]1C(=O)N[C@@H](CCCCN)C(=O)N[C@@H](Cc1ccc(O)cc1)C(=O)N[C@H](CCCNC(=N)N)C(=O)N1CCC[C@@H]1C(=O)N1CCC[C@@H]1C(=O)N1CCC[C@@H]1C(N)=O)[C@H](C)O [SEQ ID NO: 9, TAFQEPPPKPSRPKYRPPP]

Molecule: EFTGPPQKPPRLGAQS [Pyk2-PRR3, EFTGPPQKPPRLGAQS]
- 2D motility (accumulated and Euclidean distances, velocity) (MDA-MB-231 cells [2]): reduced 2D motility; also recorded: minor effect
- invadopodia formation and maturation (MDA-MB-231 cells [3]): minor effect

- loss of affinity (cortactin SH3 domain): 27 fold
Molecule: TAFQEPPPKPSR [Δ720-726 deletion mutant, Pyk2-PRR2 truncated to positions 708-719]

- loss of affinity (cortactin SH3 domain): 3.5 fold
Molecule: TAFQEPPPKPSRPKARPPP [Y722A, Pyk2-PRR2 708-726 with Y722A substitution]

- Kd [4]: 650 µM
B1: Pyk2-PRR3 peptide (SEQ ID NO: 2) (peptide)
peptide: EFTGPPQKPPRLGAQS
notes: Unlabeled synthetic peptide as used in the NMR titration

- Kd [5]: 8 µM
Molecule: HAIYPRHTAFQEPPPKPSRPKYRPPP-NH2 [Tf-tag-Pyk2-PRR2, HAIYPRHTAFQEPPPKPSRPKYRPPP-NH2 (SEQ ID NO: 7 + C-term cap)]

- Kd [5]: 2 µM
B2: Pyk2-PRR2-Tf-tag, Ac-TAFQEPPPKPSRPKYRPPPHRPYIAH (SEQ ID NO: 8 + N-term cap) (peptide)
peptide: Ac-TAFQEPPPKPSRPKYRPPPHRPYIAH
notes: Pyk2-PRR2 (human Pyk2 708-726) followed by a C-terminal tag printed as HRPYIAH, the reverse of the Tf tag

Reference: US20240368566A1, “PYK2-DERIVED PEPTIDES FOR INHIBITING INVADOPODIA-MEDIATED CANCER METASTASIS” (BAR-ILAN UNIVERSITY, priority 2023, published 2024)
